In doi:10.1101/2023.09.18.558202 (bioRxiv, 2023):

Molecular target: the molecule itself
Assay: SEC

B1: F420-dependent methylene-tetrahydromethanopterin reductase (Mer) from Methanocaldococcus jannaschii (enzyme, UniProt Q58929 1-331, looked up)
chain: MKFGIEFVPNEPIQKLCYYVKLAEDNGFEYCWITDHYNNRNVYMALTAIAMNTNKIKLGPGVTNPYVRSPAITASAIATLDELSGGRAVLGIGPGDKATFDALGIEWVKPVTTLKESIEVIRKLLAGERVSYEGKVVKIAGAALAVKPIQKAVPVYMGAQGPKMLETAGMIADGVLINASNPKDFEAAIPLIKKGAEAAGRSMDEIDVAAYACMSVDKNADKAKQAAVPVVAFIAAGSPPVVLERHGIDMEKVEAIRNALKSGNFPEAFKNVDDTMLEAFSIYGTPEDVVEKCKKLAEMGVTQIVAGSPIGPNKETAIKLIGKKVIPALKE
stoichiometry N: 2
